Measured values from patent US20150246947A1 (BAXALTA, published 2015).
Where “and” joins values, the source holds several entries; their conditions need not be identical. Identical values can stand only once. Non-standard residues stand in square brackets, D forms with d.

T1: human Protein S (human, UniProt P07225 42-676)
T1 construct: Called 'full length Protein S' / 'human full-length Protein S'; It was coated on plates (ELISA), Eu-labeled (LANCE) or immobilized on a chip (Biacore); also called PS; full length Protein S
T1 sequence: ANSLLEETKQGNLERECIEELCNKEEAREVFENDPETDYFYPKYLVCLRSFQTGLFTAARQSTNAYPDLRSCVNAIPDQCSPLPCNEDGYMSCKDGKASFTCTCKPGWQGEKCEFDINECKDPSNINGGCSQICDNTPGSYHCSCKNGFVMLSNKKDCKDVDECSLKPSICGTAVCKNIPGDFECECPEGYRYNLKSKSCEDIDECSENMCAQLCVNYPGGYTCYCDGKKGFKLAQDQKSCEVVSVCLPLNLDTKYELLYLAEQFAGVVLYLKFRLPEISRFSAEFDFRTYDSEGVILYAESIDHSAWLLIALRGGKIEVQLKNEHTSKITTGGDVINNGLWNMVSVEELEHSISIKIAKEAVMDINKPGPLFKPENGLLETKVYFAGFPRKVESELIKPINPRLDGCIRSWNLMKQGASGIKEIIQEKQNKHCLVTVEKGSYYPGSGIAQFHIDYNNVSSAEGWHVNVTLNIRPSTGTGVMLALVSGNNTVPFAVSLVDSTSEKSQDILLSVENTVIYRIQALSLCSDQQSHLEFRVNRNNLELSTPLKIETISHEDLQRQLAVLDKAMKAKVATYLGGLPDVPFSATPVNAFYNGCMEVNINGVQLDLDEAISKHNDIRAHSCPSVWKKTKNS

T2: human Protein S (UniProt P07225 42-676)
T2 chain: T1 sequence

B1: JBS3321 (peptide)
peptide: Ac-EYYVSAGWYDYNTDTYYEFEC-NH2
modifications: not fully specified (residue 21)
notes: Tetramer of JBS3319 monomers with a four arm 10 kD PEG moiety
B2: JBS2734 (peptide)
chain: Ac-TGLVSAGWYDYN[dA]DHYREFT-NH2
SMILES: CC(=O)N[C@H](C(=O)NCC(=O)N[C@@H](CC(C)C)C(=O)N[C@H](C(=O)N[C@@H](CO)C(=O)N[C@@H](C)C(=O)NCC(=O)N[C@@H](Cc1c[nH]c2ccccc12)C(=O)N[C@@H](Cc1ccc(O)cc1)C(=O)N[C@@H](CC(=O)O)C(=O)N[C@@H](Cc1ccc(O)cc1)C(=O)N[C@@H](CC(N)=O)C(=O)N[C@H](C)C(=O)N[C@@H](CC(=O)O)C(=O)N[C@@H](Cc1c[nH]cn1)C(=O)N[C@@H](Cc1ccc(O)cc1)C(=O)N[C@@H](CCCNC(=N)N)C(=O)N[C@@H](CCC(=O)O)C(=O)N[C@@H](Cc1ccccc1)C(=O)N[C@H](C(N)=O)[C@@H](C)O)C(C)C)[C@@H](C)O

What follows are binders tested against T1, human Protein S (assay: Biacore (SPR), Protein S immobilized).
In short: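 Surface plasmon resonance was used to measure peptide binding kinetics to human full-length Protein S, and Kd was calculated from the kon and koff obtained by Langmuir model fits of the sensorgrams. The protein was immobilized at 1000 RU on a […] chip in a Biacore 3000 or Biacore T200. Peptides were injected at various concentrations in HBS-buffer with 3 mM CaCl₂ and 1% DMSO, and the chip was regenerated using 4 M MgCl₂ in HBS-buffer.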

Row | Kd [nM] | koff [s⁻¹] | kon [M⁻¹ s⁻¹] | Binder
1 | 0.4 | 0.000322 | 735000 | Ac-AIYVTAGWYDYNNDTYYEFT-NH2 [JBS3283]
2 | 0.4 | 0.000402 | 1e+06 | Ac-HWYVSAGWYDYNEDKYYEFE-NH2 [JBS3306]
3 | 0.4 | 0.000264 | 629000 | Ac-EYIVTAGWYDYNKDIYYEFK-NH2 [JBS3263]
4 | 0.02 | 3.88e-05 | 1.58e+06 | B1

Molecular target: T2, human Protein S
Test: LANCE competition
In short: (§1)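 IC50 was derived by non-linear regression of the acceptor emission in a LANCE time-resolved FRET competition assay using europium-labelled Protein S, ULight-labelled streptavidin, a biotinylated tracer peptide and three-fold titrations of unlabelled test peptide. Reactions of 50 µl contained 10 nM Protein S, 100 nM streptavidin and 300 nM tracer at final concentration (2 nM Protein S and 60 nM tracer on a Tecan F500), were kept 1 hour at room temperature, and were read at Ex 340 nm, Em 665 nm.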

Row | IC50 | Binder
5 | 4 nM | Ac-TGLVSAGWYDYNFDHYTEFT-NH2 [JBS2887]
6 | 3.6 nM | Ac-TGLVSAGWYDYNFDHYWEFT-NH2 [JBS2924]
7 | 31.8 nM | Ac-TSHVSAGWYDYNFDHYREFT-NH2 [JBS2649]
8 | 9.4 nM | Ac-TGHVSAGWYDYNFDHYRPFT-NH2 [JBS2645]
9 | 30 nM | Ac-TAHVSAGWYDYNFDDYREFT-NH2 [JBS2679]
10 | 18.7 nM | Ac-GAHVSAGWYDYNFDHYREFT-NH2 [JBS2681]
11 | 6.8 nM | Ac-TGLVSAGWYDYNFDHYEEFT-NH2 [JBS2752]
12 | 13.5 nM | Ac-TGLVSAGWYNYNFDHYREFT-NH2 [JBS2823]
13 | 3.4 nM | Ac-TGLVSAGWYDYNFDHYIEFT-NH2 [JBS2790]
14 | 12.5 nM | Ac-TFHVSAGWYDYNFDHYREFT-NH2 [JBS2611]
15 | 5.7 nM | Ac-TGLVSAGWYDYNMDHYREFT-NH2 [JBS2806]
16 | 6 nM | Ac-TAHVSAGWYDYNFDLYREFT-NH2 [JBS2680]
17 | 18.6 nM | Ac-SGHVSAGWYDYNFDHYREFT-NH2 [JBS2648]
18 | 17 nM | Ac-TGFVSAGWYDYNFDHYREFT-NH2 [JBS2612]
19 | 7.5 nM | Ac-GGHVSAGWYDYNFDLYREFT-NH2 [JBS2682]
20 | 5.2 nM | Ac-TGLVSAGWYDYNFDHYHEFT-NH2 [JBS2770]
21 | 18.8 nM | Ac-LGHVSAGWYDYNFDHYREFT-NH2 [JBS2570]
22 | 8.4 nM | Ac-TGLVSAGWYDNNFDHYREFT-NH2 [JBS2845]
23 | 15.5 nM | Ac-FGHVSAGWYDYNFDHYREFT-NH2 [JBS2610]

Row | IC50 | Binder
24 | 1.5 nM | Ac-EGYVSAGWYDYNTDTYYEFE-NH2 [JBS3222]
25 | 12.5 nM | Ac-GGHVSAGWYDYNADHYREFT-NH2 [JBS2684]
26 | 15.1 nM | Ac-TGHVSAGWYDYNFDFYREFT-NH2 [JBS2623]
27 | 4.4 nM | Ac-TGLVSAGWYDYNNDHYREFT-NH2 [JBS2825]
28 | 5.4 nM | Ac-TGLVSAGWYDYNFDQYREFT-NH2 [JBS2847]
29 | 25.1 nM | Ac-TGSVSAGWYDYNFDHYREFT-NH2 [JBS2650]
30 | 5.6 nM | Ac-GAHVSAGWYDYNFDLYREFT-NH2 [JBS2683]
31 | 4 nM and 5.6 nM | Ac-MGLVSAGWYDYNFDHYREFT-NH2 [JBS2794]
32 | 28.4 nM | Ac-TGHVSAGWYDYNFDHYSEFT-NH2 [JBS2663]
33 | 5.9 nM | Ac-TGLVSAGWYDYNFDHYVEFT-NH2 [JBS2905]
34 | 27 nM | Ac-PGHVSAGWYDYNFDHYREFT-NH2 [JBS2628]
35 | 792 nM | B2
36 | 2.2 nM | Ac-TGLVSAGWYDYNFDIYREFT-NH2 [JBS2788]
37 | 3.1 nM | Ac-TGLVSAGWYDYNFDVYREFT-NH2 [JBS2903]
38 | 1810 nM | Ac-TGHVSAGWYDYNFDHYRE-NH2 [JBS2678]
39 | 11.4 nM | Ac-KGHVSAGWYDYNFDHYREFT-NH2 [JBS2590]
40 | 11.6 nM | Ac-GGHVSAGWYDYNKDHYREFT-NH2 [JBS2676]
41 | 3.6 nM | Ac-TGLVSAGWYDYNFDEYREFT-NH2 [JBS2750]

Molecular target: T2, human Protein S
Test: LANCE competition
Remark: another data set of the same source
In short: as §1

Row | IC50 [nM] | Binder
42 | 0.9 | Ac-AIYVTAGWYDYNNDTYYEFT-NH2 [JBS3283]
43 | 0.8 | Ac-HWYVSAGWYDYNEDKYYEFE-NH2 [JBS3306]
44 | 1.2 | Ac-EYIVTAGWYDYNKDIYYEFK-NH2 [JBS3263]
45 | 0.7 | B1
